{"source": "paper PMC10945824", "about": "(Proceedings of the National Academy of Sciences of the …, 2024)", "proteins": {"B1": {"name": "human paraneoplastic antigen Ma2 (PNMA2), recombinant, wild type (natural protein, UniProt Q9UL42 1-364, looked up)", "chain": "MALALLEDWCRIMSVDEQKSLMVTGIPADFEEAEIQEVLQETLKSLGRYRLLGKIFRKQENANAVLLELLEDTDVSAIPSEVQGKGGVWKVIFKTPNQDTEFLERLNLFLEKEGQTVSGMFRALGQEGVSPATVPCISPELLAHLLGQAMAHAPQPLLPMRYRKLRVFSGSAVPAPEEESFEVWLEQATEIVKEWPVTEAEKKRWLAESLRGPALDLMHIVQADNPSISVEECLEAFKQVFGSLESRRTAQVRYLKTYQEEGEKVSAYVLRLETLLRRAVEKRAIPRRIADQVRLEQVMAGATLNQMLWCRLRELKDQGPPPSFLELMKVIREEEEEEASFENESIEEPEERDGYGRWNHEGDD"}, "B2": {"name": "HA-tagged human PNMA2 secreted by HEK293FT cells (natural protein, UniProt Q9UL42 1-364, looked up)", "chain": "B1 chain"}}, "key": {"cryo-EM structure": {"biological_target": "the molecule itself", "assay": "cryo-EM structure"}, "negative-stain TEM [1]": {"biological_target": "the molecule itself", "assay": "negative-stain TEM"}, "negative-stain TEM [2]": {"biological_target": "the molecule itself", "assay": "negative-stain TEM", "remark": "listed apart in the source"}}, "note": "Like-named read-outs stand apart in the source and are kept apart here."}
{"protein": "B1", "values": [{"measurement": "stoichiometry N", "setting": "cryo-EM structure", "result": 60}, {"measurement": "binding result", "setting": "negative-stain TEM [1]", "result": "binds"}]}
{"protein": "B2", "values": [{"measurement": "binding result", "setting": "negative-stain TEM [2]", "result": "binds"}]}
